21 molecules from patent publication US20240400720A1 (NOVIMMUNE S A, published 2024) can be followed below.

One test concerns the target T1, human CD47 (human, UniProt Q08722 19-141, limits assumed).
T1 construct: also called hCD47
Put plainly: affinity maturation by phage display on hCD47; positive in hCD47-SIRPα inhibition screen, reformatted as IgG.

In test [1] the target is T2, human CD47 on the cell surface (human, UniProt Q08722 19-323).
T2 construct: whole, on cells; also called huCD47; native CD47
Put plainly: CD47-SIRPα competitive binding assay: His-tagged soluble human SIRPα (200 ng/ml) on hCD47-transfected CHO cells, antibody 3.3 pM-330 nM; blocked ligand SIRPα.

B1: Ka3D3 antibody (antibody, human IgG1, kappa, V domains shown)
VH: not shown
VL: DIQMTQSPSSLSASVGDRVTITCRASQSIGKYLNWYQQKPGKAPKLLIYAASRLQSGVPSRFSGSGSGTDFTLTISSLQPEDFATYYCQQMHPRAPKTFGQGTKVEIKR
notes: IgG
For the molecule B1, the binding result (with human CD47; in test [1]) was “binds” in each case.

B2: Ke8B7 antibody (antibody, human IgG1, kappa, V domains shown)
VH: not shown
VL: DIQMTQSPSSLSASVGDRVTITCRASQSIGKYLNWYQQKPGKAPKLLIYAASSLQSGVPSRFSGSGSGTDFTLTISSLQPEDFATYYCQQMHPRSPKTFGQGTKVEIKR
notes: IgG
Turning to B2, the binding result (with human CD47; in test [1]) was “binds” each time.

B3: 5A3M4 (antibody, human IgG1, kappa, V domains shown)
VH: not shown
VL: DIQMTQSPSSLSASVGDRVTITCQASQDINKYLNWYQQKPGKAPKLLIYGASRLETGVPSRFSGSGSGTDFTFTISSLQPEDIATYYCQQKHPRNPRTFGQGTKVEIKR
notes: the list MOLECULES holds only the monovalent form; also called 5A3-M4 antibody
B3: the binding result in test [1] is listed as “binds”.

B4: Ka3C5 antibody (antibody, human IgG1, kappa, V domains shown)
VH: not shown
VL: DIQMTQSPSSLSASVGDRVTITCRASQSISRYLNWYQQKPGKAPKLLIYSASSLQSGVPSRFSGSGSGTDFTLTISSLQPEDFATYYCQQMHPRAPKTFGQGTKVEIKR
notes: IgG; also called KA3-P5C5
As for B4, the binding result (with human CD47; in test [1]) was “binds” in each case.

B5: Ka3A3 antibody (antibody, human IgG1, kappa, V domains shown)
VH: not shown
VL: DIQMTQSPSSLSASVGDRVTITCRASQSIASYLNWYQQKPGKAPKLLIYAASRLQSGVPSRFSGSGSGTDFTLTISSLQPEDFATYYCQQMHPRAPKTFGQGTKVEIKR
notes: IgG; also called KA3-P1A3
As for B5, the binding result (with human CD47; in test [1]) was “binds” in each case.

B6: Ke8A4 antibody (antibody, human IgG1, kappa, V domains shown)
VH: not shown
VL: DIQMTQSPSSLSASVGDRVTITCRASQSIAKYLNWYQQKPGKAPKLLIYAASSLQSGVPSRFSGSGSGTDFTLTISSLQPEDFATYYCQQFHKRSPQTFGQGTKVEIKR
notes: IgG
Turning to B6, the binding result (with human CD47; in test [1]) was “binds” in each case.

B7: Ke8G2 antibody (antibody, human IgG1, kappa, V domains shown)
VH: not shown
VL: DIQMTQSPSSLSASVGDRVTITCRASQSIGRYLNWYQQKPGKAPKLLIYAASRLQSGVPSRFSGSGSGTDFTLTINSLQPEDFATYYCQQKHPRAPRTFGQGTKVEIKR
notes: IgG
In the case of B7, the binding result (with human CD47; in test [1]) was “binds” each time.

B8: Ke8B2 antibody (antibody, human IgG1, kappa, V domains shown)
VH: not shown
VL: DIQMTQSPSSLSASVGDRVTITCRASQSIGKYLNWYQQKPGKAPKLLIYAASRLQSGVPSRFSGSGSGTDFTLTISSLQPEDFATYYCQQKHPRAPRTFGQGTKVEIKR
notes: IgG; also called KE8-P3B2
As to B8, the binding result (in the test with human CD47; in test [1]) was “binds” each time.

B9: Ke8G6 antibody (antibody, human IgG1, kappa, V domains shown)
VH: not shown
VL: DIQMTQSPSSLSASVGDRVTITCRASQSIGRYLNWYQQKPGKAPKLLIYAASSLQSGVPSRFSGSGSGTDFTLTISSLQPEDFATYYCQQMHPRAPKTFGQGTKVEIKR
notes: IgG
Regarding B9, the binding result (with human CD47; in test [1]) was “binds” throughout.

B10: Ka3A2 antibody (antibody, human IgG1, kappa, V domains shown)
VH: not shown
VL: DIQMTQSPSSLSASVGDRVTITCRASQSISKYLNWYQQKPGKAPKLLIYAASRLQSGVPSRFSGSGSGTDFTLTISSLQPEDFATYYCQQMHPRSPKTFGQGTKVEIKR
notes: IgG
Regarding B10, the binding result (with human CD47; in test [1]) was “binds” each time.

B11: Ke8G11 antibody (antibody, human IgG1, kappa, V domains shown)
VH: not shown
VL: DIQMTQSPSSLSASVGDRVTITCRASQSIGRYLNWYQQKPGKAPKLLIYAASSLQSGVPSRFSGSGSGTDFTLTISSLQPEDFATYYCQQMHPRGPKTFGQGTKVEIKR
notes: IgG
Turning to B11, the binding result (with human CD47; in test [1]) was “binds” throughout.

B12: Ke8E8 antibody (antibody, human IgG1, kappa, V domains shown)
VH: not shown
VL: DIQMTQSPSSLSASVGDRVTITCQASQDINKYLNWYQQKPGKAPKLLIYAASSLQSGVPSRFSGSGSGTDFTLTISSLQPEDFATYYCQQKHPRGPRTFGQGTKVEIKR
notes: IgG
Regarding B12, the binding result (with human CD47; in test [1]) was “binds” in each case.

B13: Ke8A8 antibody (antibody, human IgG1, kappa, V domains shown)
VH: not shown
VL: DIQMTQSPSSLSASVGDRVTITCRASQSISKYLNWYQQKPGKAPKLLIYAASTLQSGVPSRFSGSGSGTDFTLTISSLQPEDFATYYCQQMHPRAPKTFGQGTKVEIKR
notes: IgG
Turning to B13, the binding result (in the test with human CD47; in test [1]) was “binds” in each case.

B14: Ke8C7 antibody (antibody, human IgG1, kappa, V domains shown)
VH: not shown
VL: DIQMTQSPSSLSASVGDRVTITCQASQDINRYLNWYQQKPGKAPKLLIYAASSLQSGVPSRFSGSGSGTDFTLTISSLQPEDFATYYCQQRHPRGPRTFGQGTKVEIKR
notes: IgG
As for B14, the binding result (with human CD47; in test [1]) was “binds” in each case.

B15: Ke8F1 antibody (antibody, human IgG1, kappa, V domains shown)
VH: not shown
VL: DIQMTQSPSSLSASVGDRVTITCRASQSIASYVNWYQQKPGKAPKLLIYAASGLQSGVPSRFSGSGSGTDFTLTISSLQPEDFATYYCQQFHKRRPQTFGQGTKVEIKR
notes: IgG
Regarding B15, the binding result (with human CD47; in test [1]) was “binds” throughout.

B16: Ke8F2 antibody (antibody, human IgG1, kappa, V domains shown)
VH: not shown
VL: DIQMTQSPSSLSASVGDRVTITCRASQSIDKYLNWYQQKPGKAPKLLIYAASSLQSGVPSRFSGSGSGTDFTLTISSLQPEDFATYYCQQKHPRAPRTFGQGTKVEIKR
notes: IgG
As for B16, the binding result in the test with human CD47 is reported as “binds”.

B17: Ka3H3 antibody (antibody, human IgG1, kappa, V domains shown)
VH: not shown
VL: DIQMTQSPSSLSASVGDRVTITCQASQDIAKYLNWYQQKPGKAPKLLIYAASALQSGVPSRFSGSGSGTDFTLTISSLQPEDFATYYCQQMHPRSPKTFGQGTKVEIKR
notes: IgG
Consider B17, for which the binding result (with human CD47; in test [1]) was “binds” each time.

B18: Ka3H8 antibody (antibody, human IgG1, kappa, V domains shown)
VH: not shown
VL: DIQMTQSPSSLSASVGDRVTITCRASQSIASYLNWYQQKPGKAPKLLIYAASRLQSGVPSRFSGSGSGTDFTLTISSLQPEDFATYYCQQMHPRSPKTFGQGTKVEIKR
notes: IgG
Regarding B18, the binding result (with human CD47; in test [1]) was “binds” in each case.

B19: Ka3G2 antibody (antibody, human IgG1, kappa, V domains shown)
VH: not shown
VL: DIQMTQSPSSLSASVGDRVTITCRASQSIDKYLNWYQQKPGKAPKLLIYAASRLQSGVPSRFSGSGSGTDFTLTISSLQPEDFATYYCQQMHPRGPKTFGQGTKVEIKR
notes: IgG; also called KA3-P5G2
On to B19, for which the binding result (in the test with human CD47; in test [1]) was “binds” in each case.

B20: Ka3B2 antibody (antibody, human IgG1, kappa, V domains shown)
VH: not shown
VL: DIQMTQSPSSLSASVGDRVTITCRASQNIGKYLNWYQQKPGKAPKLLIYSASRLQSGVPSRFSGSGSGTDFTLTISSLQPEDFATYYCQQMHPRAPKTFGQGTKVEIKR
notes: IgG
Turning to B20, the binding result (with human CD47; in test [1]) was “binds” each time.

B21: Ke8C4 antibody (antibody, human IgG1, kappa, V domains shown)
VH: not shown
VL: DIQMTQSPSSLSASVGDRVTITCRASQSISRYLNWYQQKPGKAPKLLIYAASNLQSGVPSRFSGSGSGTDFTLTISSLQPEDFATYYCQQMHPRGPKTFGQGTKVEIKR
notes: IgG
B21: the binding result (with human CD47; in test [1]) was “binds” each time.
